{"source": "paper PMC4682967", "key": {"[1]": {"system": "scFv-Fc_(CH3A) of B135 and B168 (D399L/K409W)", "assay": "non-reducing SDS-PAGE of coexpressed chains; scFv-Fc_(CH3A) and Fc_(CH3B) cotransfected at equivalent molar ratio in HEK293F, Protein A purified from supernatant after 6 days; heterodimer and homodimers told apart by mass, band intensities by ImageJ", "settings": "other: non-reducing SDS-PAGE of coexpressed chains"}, "[2]": {"system": "scFv-Fc_(CH3A) of A107 and A108 (K370E/K409W)", "assay": "non-reducing SDS-PAGE of coexpressed chains; scFv-Fc_(CH3A) and Fc_(CH3B) cotransfected at equivalent molar ratio in HEK293F, Protein A purified from supernatant after 6 days; heterodimer and homodimers told apart by mass, band intensities by ImageJ", "settings": "other: non-reducing SDS-PAGE of coexpressed chains"}, "[3]": {"system": "scFv-Fc_(CH3A) of B256 (K392N/D399L)", "assay": "non-reducing SDS-PAGE of coexpressed chains; scFv-Fc_(CH3A) and Fc_(CH3B) cotransfected at equivalent molar ratio in HEK293F, Protein A purified from supernatant after 6 days; heterodimer and homodimers told apart by mass, band intensities by ImageJ", "settings": "other: non-reducing SDS-PAGE of coexpressed chains"}, "[4]": {"system": "scFv-Fc_(CH3A) of A109_(w/o W-VT) (K370M)", "assay": "non-reducing SDS-PAGE of coexpressed chains; scFv-Fc_(CH3A) and Fc_(CH3B) cotransfected at equivalent molar ratio in HEK293F, Protein A purified from supernatant after 6 days; heterodimer and homodimers told apart by mass, band intensities by ImageJ", "settings": "other: non-reducing SDS-PAGE of coexpressed chains"}, "[5]": {"system": "scFv-Fc_(CH3A) of B215 (K392R/K409R/D399L)", "assay": "non-reducing SDS-PAGE of coexpressed chains; scFv-Fc_(CH3A) and Fc_(CH3B) cotransfected at equivalent molar ratio in HEK293F, Protein A purified from supernatant after 6 days; heterodimer and homodimers told apart by mass, band intensities by ImageJ", "settings": "other: non-reducing SDS-PAGE of coexpressed chains"}, "[6]": {"system": "scFv-Fc_(CH3A) of B168_(w/o W-VT) (D399L)", "assay": "non-reducing SDS-PAGE of coexpressed chains; scFv-Fc_(CH3A) and Fc_(CH3B) cotransfected at equivalent molar ratio in HEK293F, Protein A purified from supernatant after 6 days; heterodimer and homodimers told apart by mass, band intensities by ImageJ", "settings": "other: non-reducing SDS-PAGE of coexpressed chains"}, "[7]": {"system": "scFv-Fc_(CH3A) of A146_(w/o W-VT) (K370D)", "assay": "non-reducing SDS-PAGE of coexpressed chains; scFv-Fc_(CH3A) and Fc_(CH3B) cotransfected at equivalent molar ratio in HEK293F, Protein A purified from supernatant after 6 days; heterodimer and homodimers told apart by mass, band intensities by ImageJ", "settings": "other: non-reducing SDS-PAGE of coexpressed chains"}, "[8]": {"system": "scFv-Fc_(CH3A) of B239 (K392L/D399L)", "assay": "non-reducing SDS-PAGE of coexpressed chains; scFv-Fc_(CH3A) and Fc_(CH3B) cotransfected at equivalent molar ratio in HEK293F, Protein A purified from supernatant after 6 days; heterodimer and homodimers told apart by mass, band intensities by ImageJ", "settings": "other: non-reducing SDS-PAGE of coexpressed chains"}, "[9]": {"system": "scFv-Fc_(CH3A) of A109 (K370M/K409W)", "assay": "non-reducing SDS-PAGE of coexpressed chains; scFv-Fc_(CH3A) and Fc_(CH3B) cotransfected at equivalent molar ratio in HEK293F, Protein A purified from supernatant after 6 days; heterodimer and homodimers told apart by mass, band intensities by ImageJ", "settings": "other: non-reducing SDS-PAGE of coexpressed chains"}, "[10]": {"system": "scFv-Fc_(CH3A) of B235 (K392C/D399L)", "assay": "non-reducing SDS-PAGE of coexpressed chains; scFv-Fc_(CH3A) and Fc_(CH3B) cotransfected at equivalent molar ratio in HEK293F, Protein A purified from supernatant after 6 days; heterodimer and homodimers told apart by mass, band intensities by ImageJ", "settings": "other: non-reducing SDS-PAGE of coexpressed chains"}, "[11]": {"system": "scFv-Fc_(CH3A) of A241 (E357N/S364W/K370E)", "assay": "non-reducing SDS-PAGE of coexpressed chains; scFv-Fc_(CH3A) and Fc_(CH3B) cotransfected at equivalent molar ratio in HEK293F, Protein A purified from supernatant after 6 days; heterodimer and homodimers told apart by mass, band intensities by ImageJ", "settings": "other: non-reducing SDS-PAGE of coexpressed chains"}, "[12]": {"system": "scFv-Fc_(CH3A) of A107_(w/o W-VT) (K370E)", "assay": "non-reducing SDS-PAGE of coexpressed chains; scFv-Fc_(CH3A) and Fc_(CH3B) cotransfected at equivalent molar ratio in HEK293F, Protein A purified from supernatant after 6 days; heterodimer and homodimers told apart by mass, band intensities by ImageJ", "settings": "other: non-reducing SDS-PAGE of coexpressed chains"}, "[13]": {"system": "scFv-Fc_(CH3A) of A216 (E357G/S364W/K370E)", "assay": "non-reducing SDS-PAGE of coexpressed chains; scFv-Fc_(CH3A) and Fc_(CH3B) cotransfected at equivalent molar ratio in HEK293F, Protein A purified from supernatant after 6 days; heterodimer and homodimers told apart by mass, band intensities by ImageJ", "settings": "other: non-reducing SDS-PAGE of coexpressed chains"}, "[14]": {"system": "scFv-Fc_(CH3A) of B240 (K392S/K409R/D399L)", "assay": "non-reducing SDS-PAGE of coexpressed chains; scFv-Fc_(CH3A) and Fc_(CH3B) cotransfected at equivalent molar ratio in HEK293F, Protein A purified from supernatant after 6 days; heterodimer and homodimers told apart by mass, band intensities by ImageJ", "settings": "other: non-reducing SDS-PAGE of coexpressed chains"}, "[15]": {"system": "scFv-Fc_(CH3A) of B212 (K392I/D399L)", "assay": "non-reducing SDS-PAGE of coexpressed chains; scFv-Fc_(CH3A) and Fc_(CH3B) cotransfected at equivalent molar ratio in HEK293F, Protein A purified from supernatant after 6 days; heterodimer and homodimers told apart by mass, band intensities by ImageJ", "settings": "other: non-reducing SDS-PAGE of coexpressed chains"}, "[16]": {"system": "scFv-Fc_(CH3A) of A205 (E357D/S364W/K370E)", "assay": "non-reducing SDS-PAGE of coexpressed chains; scFv-Fc_(CH3A) and Fc_(CH3B) cotransfected at equivalent molar ratio in HEK293F, Protein A purified from supernatant after 6 days; heterodimer and homodimers told apart by mass, band intensities by ImageJ", "settings": "other: non-reducing SDS-PAGE of coexpressed chains"}, "[17]": {"system": "scFv-Fc_(CH3A) of A210 (E357A/S364Y/K370E)", "assay": "non-reducing SDS-PAGE of coexpressed chains; scFv-Fc_(CH3A) and Fc_(CH3B) cotransfected at equivalent molar ratio in HEK293F, Protein A purified from supernatant after 6 days; heterodimer and homodimers told apart by mass, band intensities by ImageJ", "settings": "other: non-reducing SDS-PAGE of coexpressed chains"}, "[18]": {"system": "scFv-Fc_(CH3A) of B121 (D399E/K409W)", "assay": "non-reducing SDS-PAGE of coexpressed chains; scFv-Fc_(CH3A) and Fc_(CH3B) cotransfected at equivalent molar ratio in HEK293F, Protein A purified from supernatant after 6 days; heterodimer and homodimers told apart by mass, band intensities by ImageJ", "settings": "other: non-reducing SDS-PAGE of coexpressed chains"}, "[19]": {"system": "scFv-Fc_(CH3A) of W-VT (K409W)", "assay": "non-reducing SDS-PAGE of coexpressed chains; scFv-Fc_(CH3A) and Fc_(CH3B) cotransfected at equivalent molar ratio in HEK293F, Protein A purified from supernatant after 6 days; heterodimer and homodimers told apart by mass, band intensities by ImageJ", "settings": "other: non-reducing SDS-PAGE of coexpressed chains"}, "[20]": {"target": "human neonatal Fc receptor (FcRn) (human) (UniProt P55899)", "assay": "SPR; human FcRn coated on the chip at approximately 1,000 response units; serially diluted Fc proteins applied; pH 6.0; mean ± SD of two independent experiments, at least 5 data sets each"}, "[21]": {"system": "scFv-Fc_(CH3A) of A146 (K370D/K409W)", "assay": "non-reducing SDS-PAGE of coexpressed chains; scFv-Fc_(CH3A) and Fc_(CH3B) cotransfected at equivalent molar ratio in HEK293F, Protein A purified from supernatant after 6 days; heterodimer and homodimers told apart by mass, band intensities by ImageJ", "settings": "other: non-reducing SDS-PAGE of coexpressed chains"}}, "data": [{"substance": "Fc_(CH3B) of B135 (K392S/K409L/D399V/F405T)", "values": [{"measurement": "heterodimer yield (%)", "setting": "[1]", "value": 67.8, "unit": "%"}]}, {"substance": "Fc_(CH3B) of A108 (E357I/S364T/D399V/F405T)", "values": [{"measurement": "heterodimer yield (%)", "setting": "[2]", "value": 70.5, "unit": "%"}]}, {"substance": "Fc_(CH3B) of B256 (D399V/K392G/K409M)", "values": [{"measurement": "heterodimer yield (%)", "setting": "[3]", "value": 79.4, "unit": "%"}]}, {"substance": "Fc_(CH3B) of A109_(w/o W-VT) (E357M/S364W)", "values": [{"measurement": "heterodimer yield (%)", "setting": "[4]", "value": 61.6, "unit": "%"}]}, {"substance": "Fc_(CH3B) of B215 (D399W/K392G/K409M)", "values": [{"measurement": "heterodimer yield (%)", "setting": "[5]", "value": 78.1, "unit": "%"}]}, {"substance": "Fc_(CH3B) of B168_(w/o W-VT) (K392G/K409M)", "values": [{"measurement": "heterodimer yield (%)", "setting": "[6]", "value": 60.9, "unit": "%"}]}, {"substance": "Fc_(CH3B) of A146_(w/o W-VT) (E357M)", "values": [{"measurement": "heterodimer yield (%)", "setting": "[7]", "value": 71, "unit": "%"}]}, {"substance": "Fc_(CH3B) of B168 (K392G/K409M/D399V/F405T)", "values": [{"measurement": "heterodimer yield (%)", "setting": "[1]", "value": 77.7, "unit": "%"}]}, {"substance": "Fc_(CH3B) of B239 (D399S/K392G/K409M)", "values": [{"measurement": "heterodimer yield (%)", "setting": "[8]", "value": 76.3, "unit": "%"}]}, {"substance": "Fc_(CH3B) of A109 (E357M/S364W/D399V/F405T)", "values": [{"measurement": "heterodimer yield (%)", "setting": "[9]", "value": 90.5, "unit": "%"}]}, {"substance": "Fc_(CH3B) of B235 (D399C/K392G/K409M)", "values": [{"measurement": "heterodimer yield (%)", "setting": "[10]", "value": 89.4, "unit": "%"}]}, {"substance": "Fc_(CH3B) of A107_(w/o W-VT), A216 and A241 (E357N)", "values": [{"measurement": "heterodimer yield (%)", "setting": "[11]", "value": 81, "unit": "%"}, {"measurement": "heterodimer yield (%)", "setting": "[12]", "value": 78.2, "unit": "%"}, {"measurement": "heterodimer yield (%)", "setting": "[13]", "value": 80.3, "unit": "%"}]}, {"substance": "Fc_(CH3B) of B212 and B240 (D399G/K392G/K409M)", "values": [{"measurement": "heterodimer yield (%)", "setting": "[14]", "value": 83.3, "unit": "%"}, {"measurement": "heterodimer yield (%)", "setting": "[15]", "value": 65.3, "unit": "%"}]}, {"substance": "Fc_(CH3B) of A205 (E357N/K370R)", "values": [{"measurement": "heterodimer yield (%)", "setting": "[16]", "value": 88.8, "unit": "%"}]}, {"substance": "Fc_(CH3B) of A210 (E357N/K370H)", "values": [{"measurement": "heterodimer yield (%)", "setting": "[17]", "value": 80.8, "unit": "%"}]}, {"substance": "Fc_(CH3B) of B121 (K392E/D399V/F405T)", "values": [{"measurement": "heterodimer yield (%)", "setting": "[18]", "value": 73.3, "unit": "%"}]}, {"substance": "Fc_(CH3B) of W-VT (D399V/F405T)", "values": [{"measurement": "heterodimer yield (%)", "setting": "[19]", "value": 60.8, "unit": "%"}]}, {"substance": "wild-type human IgG1 Fc homodimer (Fc-WT) (domain or fragment)", "values": [{"measurement": "Kd", "setting": "[20]", "value": 0.0356, "unit": "µM"}, {"measurement": "koff", "setting": "[20]", "value": "5.83e-05", "unit": "s⁻¹"}, {"measurement": "kon", "setting": "[20]", "value": 1640, "unit": "M⁻¹ s⁻¹"}]}, {"substance": "Fc_(CH3B) of A146 (E357M/D399V/F405T)", "values": [{"measurement": "heterodimer yield (%)", "setting": "[21]", "value": 74.5, "unit": "%"}]}, {"substance": "Fc_(CH3B) of A107 (E357N/D399V/F405T)", "values": [{"measurement": "heterodimer yield (%)", "setting": "[2]", "value": 93.4, "unit": "%"}]}]}
